# Reference: publication PMC10491184 (bioRxiv, 2023)
# “And” between values parts separate entries of the source, which are not always exact repeats. Equal values may be shown once.
# B1: Escherichia coli Rof, wildtype, tag-less (natural protein, E. coli)
# chain: MNDTYQPINCDDYDNLELACQHHLMLTLELKDGEKLQAKASDLVSRKNVEYLVVEAAGETRELRLDKITSFSHPEIGTVVVSES
# Key:
# [1] = target: T1, Rho (transcription termination factor) wt (Escherichia coli, UniProt P0AG30 1-419); assay: fluorescence anisotropy
# [2] = target: Rho (transcription termination factor) wt;Rof D14A (Escherichia coli;Escherichia coli, UniProt P0AG30;P0AFW8 1-419;1-84, |D14A); assay: fluorescence anisotropy
# [3] = target: Rho (transcription termination factor) wt;Rof Y13A (Escherichia coli;Escherichia coli, UniProt P0AG30;P0AFW8 1-419;1-84, |Y13A); assay: fluorescence anisotropy
# [4] = target: Escherichia coli transcription termination factor ρ F89S (E. coli, UniProt P0AG30 1-419, F89S); assay: SEC
# [5] = target: Escherichia coli transcription termination factor ρ K115E (E. coli, UniProt P0AG30 1-419, K115E); assay: SEC
# [6] = target: Escherichia coli transcription termination factor ρ, wildtype (E. coli, UniProt P0AG30 1-419); assay: cryo-EM structure
# [7] = target: T1, Rho (transcription termination factor) …; assay: fluorescence anisotropy; remark: listed apart in the source
binder,measurement,setting,value
CCCCCCCCCCCCCCC (ssDNA) [dC15],Kd,[1],1000 nM
same,binding result,[2],binds
same,binding result,[3],binds
B1,binding result,[4],binds
same,binding result,[5],binds
same,stoichiometry N,[6],5 Rof molecules per ρ hexamer and 4 Rof molecules per ρ pentamer
UUUUUUUUUUUU (ssRNA) [rU12],binding result,[7],binds
